Data published in publication PMC4718629, “Molecular Determinants of GS-9620-Dependent TLR7 Activation” (PLoS ONE, 2016).

Molecular target: the molecule itself
Assay: SEC; purified recombinant full-length TLR7 run against calibration standards (670, 158, 44, 17 and 1.35 kDa); solubilized with Fos-Choline 14

B1: full-length recombinant human TLR7 (residues 27-1049) with N-terminal 6HIS tag (receptor, UniProt Q9NYK1 27-1049, looked up)
chain: ARWFPKTLPCDVTLDVPKNHVIVDCTDKHLTEIPGGIPTNTTNLTLTINHIPDISPASFHRLDHLVEIDFRCNCVPIPLGSKNNMCIKRLQIKPRSFSGLTYLKSLYLDGNQLLEIPQGLPPSLQLLSLEANNIFSIRKENLTELANIEILYLGQNCYYRNPCYVSYSIEKDAFLNLTKLKVLSLKDNNVTAVPTVLPSTLTELYLYNNMIAKIQEDDFNNLNQLQILDLSGNCPRCYNAPFPCAPCKNNSPLQIPVNAFDALTELKVLRLHSNSLQHVPPRWFKNINKLQELDLSQNFLAKEIGDAKFLHFLPSLIQLDLSFNFELQVYRASMNLSQAFSSLKSLKILRIRGYVFKELKSFNLSPLHNLQNLEVLDLGTNFIKIANLSMFKQFKRLKVIDLSVNKISPSGDSSEVGFCSNARTSVESYEPQVLEQLHYFRYDKYARSCRFKNKEASFMSVNESCYKYGQTLDLSKNSIFFVKSSDFQHLSFLKCLNLSGNLISQTLNGSEFQPLAELRYLDFSNNRLDLLHSTAFEELHKLEVLDISSNSHYFQSEGITHMLNFTKNLKVLQKLMMNDNDISSSTSRTMESESLRTLEFRGNHLDVLWREGDNRYLQLFKNLLKLEELDISKNSLSFLPSGVFDGMPPNLKNLSLAKNGLKSFSWKKLQCLKNLETLDLSHNQLTTVPERLSNCSRSLKNLILKNNQIRSLTKYFLQDAFQLRYLDLSSNKIQMIQKTSFPENVLNNLKMLLLHHNRFLCTCDAVWFVWWVNHTEVTIPYLATDVTCVGPGAHKGQSVISLDLYTCELDLTNLILFSLSISVSLFLMVMMTASHLYFWDVWYIYHFCKAKIKGYQRLISPDCCYDAFIVYDTKDPAVTEWVLAELVAKLEDPREKHFNLCLEERDWLPGQPVLENLSQSIQLSKKTVFVMTDKYAKTENFKIAFYLSHQRLMDEKVDVIILIFLEKPFQKSKFLQLRKRLCGSSVLEWPTNPQAHPYFWQCLKNALATDNHVAYSQVFKETV
notes: human Toll-like receptor 7 (TLR7), residues 27-1049; also called recTLR7; recombinant TLR7
- stoichiometry N: 2
